US10722558 (dated 2020)
Positions count from the first letter of the chain named. Names may count otherwise. Like-named read-outs stand apart in the source and are kept apart here. Values belong to the binder of their own block, whether it stands above or below them.

Assays:
[1] = biological target: T1, GDF8 (human, UniProt O14793); experiment: SPR
[2] = biological target: T2, Activin A (human, UniProt P08476); experiment: SPR
T2 chain: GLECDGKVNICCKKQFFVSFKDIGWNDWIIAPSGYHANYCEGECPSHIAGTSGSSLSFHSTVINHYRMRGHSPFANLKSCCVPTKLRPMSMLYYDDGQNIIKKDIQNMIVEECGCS

[3] = biological target: T3, GDF11 (human, UniProt O95390); experiment: SPR, very low signal
T3 chain: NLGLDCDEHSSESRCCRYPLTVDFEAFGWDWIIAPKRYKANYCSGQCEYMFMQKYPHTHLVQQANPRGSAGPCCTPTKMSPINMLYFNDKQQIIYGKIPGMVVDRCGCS

[4] = biological target: T3, GDF11; experiment: SPR
[5] = biological target: T4, Activin B (human, UniProt P09529); experiment: SPR
T4 chain: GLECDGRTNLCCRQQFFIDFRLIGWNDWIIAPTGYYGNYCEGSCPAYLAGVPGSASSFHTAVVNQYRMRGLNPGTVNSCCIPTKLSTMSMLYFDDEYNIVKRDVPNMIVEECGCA

[6] = biological target: T2, Activin A; experiment: SPR
[7] = biological target: T3, GDF11; experiment: SPR
[8] = biological target: T2, Activin A; experiment: SPR
[9] = biological target: T5, GDF3 (human, UniProt Q9NR23); experiment: SPR
T5 chain: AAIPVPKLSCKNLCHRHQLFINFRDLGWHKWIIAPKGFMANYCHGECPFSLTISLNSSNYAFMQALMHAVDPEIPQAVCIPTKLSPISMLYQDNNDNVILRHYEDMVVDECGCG

[10] = biological target: T6, BMP6 (human, UniProt P22004); experiment: SPR
T6 chain: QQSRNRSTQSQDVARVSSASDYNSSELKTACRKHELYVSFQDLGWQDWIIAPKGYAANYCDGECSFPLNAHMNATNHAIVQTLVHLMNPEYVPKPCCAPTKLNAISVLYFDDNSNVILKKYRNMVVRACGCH

[11] = biological target: T7, BMP10 (human, UniProt O95393); experiment: SPR
T7 chain: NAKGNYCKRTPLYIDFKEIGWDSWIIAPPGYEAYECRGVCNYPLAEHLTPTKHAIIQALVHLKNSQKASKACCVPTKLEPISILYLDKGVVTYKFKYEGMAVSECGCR

[12] = biological target: T2, Activin A; experiment: SPR
[13] = biological target: T8, BMP9 (human, UniProt Q9UK05); experiment: SPR, transient
T8 chain: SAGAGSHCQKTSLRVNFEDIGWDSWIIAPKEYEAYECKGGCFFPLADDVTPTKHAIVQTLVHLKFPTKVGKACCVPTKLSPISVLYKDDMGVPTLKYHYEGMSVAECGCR

[14] = biological target: T4, Activin B; experiment: SPR
[15] = biological target: T1, GDF8; experiment: SPR; remark: listed apart in the source
[16] = biological target: T3, GDF11; experiment: SPR

T1 sequence (O14793 267-375): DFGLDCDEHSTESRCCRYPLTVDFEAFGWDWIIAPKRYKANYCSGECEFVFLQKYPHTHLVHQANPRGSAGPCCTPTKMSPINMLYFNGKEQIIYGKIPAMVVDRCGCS

Kd [4]: 123 pM
Kd [5]: 788 pM
Kd [6]: 13500 pM
B3: ActRIIB(L79D 20-134)-hFc (protein)
chain: GRGEAETRECIYYNANWELERTNQSGLERCEGEQDKRLHCYASWRNSSGTIELVKKGCWDDDFNCYDRQECVATEENPQVYFCCCEGNFCNERFTHLPEAGGPEVTYEPPPTAPTGGGTHTCPPCPAPELLGGPSVFLFPPKPKDTLMISRTPEVTCVVVDVSHEDPEVKFNWYVDGVEVHNAKTKPREEQYNSTYRVVSVLTVLHQDWLNGKEYKCKVSNKALPVPIEKTISKAKGQPREPQVYTLPPSREEMTKNQVSLTCLVKGFYPSDIAVEWESNGQPENNYKTTPPVLDSDGSFFLYSKLTVDKSRWQQGNVFSCSVMHEALHNHYTQKSLSLSPGK

binding result [7]: no binding
B4: ActRIIB-Fc K55A (protein)
chain: B3 chain with K55A, D60L

Kd [4]: 36 pM
Kd [5]: 12 pM
Kd [6]: 16 pM
B6: ActRIIB(20-134)-hFc (protein)
chain: B3 chain with D60L

The remaining lines, values behind:

B1: ActRIIB(R64K 20-129)-hFc (protein)
chain: GRGEAETRECIYYNANWELERTNQSGLERCEGEQDKRLHCYASWKNSSGTIELVKKGCWLDDFNCYDRQECVATEENPQVYFCCCEGNFCNERFTHLPEAGGPEVTYEPP
Kd [1]: 2150 pM
Kd [2]: 84.1 pM

B2: ALK4-Fc homodimer (protein)
chain: SGPRGVQALLCACTSCLQANYTCETDGACMVSIFNLDGMEHHVRTCIPKVELVPAGKPFYCLSSEDLRNTHCCYTDYCNRIDLRVPSGHLKEPEHPSMWGPVE
Kd [3]: 270 pM

B5: ActRIIB-Fc +15tail (protein)
chain: B3 chain with D60L
Kd [8]: ~26000 pM

B7: ALK4-Fc:ActRIIB-Fc heterodimer (protein)
chain 1: SGPRGVQALLCACTSCLQANYTCETDGACMVSIFNLDGMEHHVRTCIPKVELVPAGKPFYCLSSEDLRNTHCCYTDYCNRIDLRVPSGHLKEPEHPSMWGPVETGGGTHTCPPCPAPELLGGPSVFLFPPKPKDTLMISRTPEVTCVVVDVSHEDPEVKFNWYVDGVEVHNAKTKPREEQYNSTYRVVSVLTVLHQDWLNGKEYKCKVSNKALPAPIEKTISKAKGQPREPQVYTLPPSREEMTKNQVSLTCLVKGFYPSDIAVEWESNGQPENNYDTTPPVLDSDGSFFLYSDLTVDKSRWQQGNVFSCSVMHEALHNHYTQKSLSLSPG
chain 2: B3 chain with D60L, V226A, E252K, D295K
Kd [9]: 4900 pM
Kd [10]: 2700 pM
Kd [11]: 74 pM
Kd [12]: 12 pM
Kd [13]: 3400 pM
Kd [14]: 6 pM
Kd [15]: 550 pM
Kd [16]: 3 pM
